The supplement of paper PMC10724198
± gives the standard deviation of the averaged measurements.

How the values were obtained:
Saccharomyces cerevisiae [1] = test: protein stability index of tFT-peptide fusion (C-terminal peptide) (PSI (0-1 scale)); higher = more stable (slower turnover); details: genetic background: wild type; temperature: 30 C
Saccharomyces cerevisiae [2] = test: as above
Procedure: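 MPS profiling in S. cerevisiae of the tFT-X12 degron library: putative degron peptides plus stable controls, 12 aa, fused to the C-terminus of a sfGFP-mCherry timer. Cells are FACS-sorted into 8 mCherry/sfGFP bins and deep-sequenced. PSI runs from 0 (unstable) to 1 (stable). Backgrounds are wild type, das1Δ and doa10Δ at 30 °C, and wild type, das1Δ, cdc34-1 and cdc53-1 at 37 °C; 2-3 technical replicates each.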

[3] = genetic background: cdc34-1, temperature: 37 C
[4] = genetic background: cdc53-1, temperature: 37 C
[5] = genetic background: das1 deletion, temperature: 30 C
[6] = genetic background: das1 deletion, temperature: 37 C
[7] = genetic background: doa10 deletion, temperature: 30 C
[8] = genetic background: wild type, temperature: 30 C
[9] = genetic background: wild type, temperature: 37 C
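Note: PSI is a weighted mean of sequencing reads over stability bins, variants kept only with over 10 reads, mCherry proximal and sfGFP distal, peptide attached via GGGS linker.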

| Sequence | protein stability index (Saccharomyces cerevisiae [1]) | protein stability index (Saccharomyces cerevisiae [2]; [3]) | protein stability index (Saccharomyces cerevisiae [2]; [4]) | protein stability index (Saccharomyces cerevisiae [2]; [5]) | protein stability index (Saccharomyces cerevisiae [2]; [6]) | protein stability index (Saccharomyces cerevisiae [2]; [7]) | protein stability index (Saccharomyces cerevisiae [2]; [8]) | protein stability index (Saccharomyces cerevisiae [2]; [9]) |
| --- | --- | --- | --- | --- | --- | --- | --- | --- |
| SLVLLVASVTGS | 0.464 ± 0.016 | 0.507 ± 0.0053 | 0.546 ± 0.013 | 0.385 ± 0.024 | 0.5781 ± 0.0054 | 0.347 ± 0.01 | 0.384 ± 0.03 | 0.553 ± 0.017 |
| WFGCSTVWVRVQ | 0.147 ± 0.0067 | 0.286 ± 0.055 | 0.394 ± 0.0052 | 0.328 ± 0.037 | 0.502 ± 0.0075 | 0.0767 ± 0.0031 | 0.0787 ± 0.024 | 0.0591 ± 0.021 |
| CMLGVVRVLVWF | 0.186 ± 0.033 | 0.028 ± 0.0058 | 0.138 ± 0.075 | 0.129 ± 0.029 | 0.1929 ± 0.0009 | 0.101 ± 0.0035 | 0.105 ± 0.051 | 0.17 ± 0.027 |
| VCRGWCVVRYIL | 0.281 ± 0.064 | 0.593 ± 0.015 | 0.699 ± 0.0099 | 0.574 ± 0.012 | 0.7226 ± 0.0024 | 0.173 ± 0.00096 | 0.18 ± 0.016 | 0.259 ± 0.0046 |
| IGFSPSFQLYSA | 0.721 ± 0.0083 | 0.726 ± 0.0078 | 0.756 ± 0.012 | 0.666 ± 0.0083 | 0.77318 ± 9.2e-05 | 0.6445 ± 0.0049 | 0.67 ± 0.016 | 0.747 ± 0.012 |
| WSFPFFLLPFLF | 0.296 ± 0.034 | 0.393 ± 0.0059 | 0.352 ± 0.0092 | 0.44 ± 0.022 | 0.5103 ± 0.0048 | 0.25 ± 0.0094 | 0.211 ± 0.014 | 0.305 ± 0.021 |
| PSPRRPPRSRFP | 0.732 ± 0.0084 | 0.651 ± 0.023 | 0.725 ± 0.028 | 0.653 ± 0.0072 | 0.7355 ± 0.0031 | 0.672 ± 0.03 | 0.654 ± 0.037 | 0.701 ± 0.017 |
| GLSVLLTCIHFV | 0.256 ± 0.0041 | 0.537 ± 0.031 | 0.65 ± 0.042 | 0.482 ± 0.013 | 0.598 ± 0.01 | 0.164 ± 0.023 | 0.176 ± 0.026 | 0.333 ± 0.014 |
| FCSVFAHFLLCH | 0.264 ± 0.0032 | 0.382 ± 0.011 | 0.443 ± 0.0052 | 0.4 ± 0.013 | 0.49 ± 0.0094 | 0.193 ± 0.005 | 0.207 ± 0.013 | 0.271 ± 0.0043 |
| VGFIVCFFFSFG | 0.432 ± 0.02 | 0.334 ± 0.049 | 0.456 ± 0.0062 | 0.325 ± 0.033 | 0.459 ± 0.017 | 0.3 ± 0.031 | 0.313 ± 0.026 | 0.453 ± 0.0084 |
| VRNYWKYVVIFP | 0.569 ± 0.15 | 0.624 ± 0.0047 | 0.711 ± 0.023 | 0.617 ± 0.0079 | 0.7338 ± 0.0065 | 0.578 ± 0.011 | 0.569 ± 0.023 | 0.674 ± 0.068 |
| WYMYVRMASFLV | 0.375 ± 0.026 | 0.534 ± 0.058 | 0.634 ± 0.05 | 0.489 ± 0.026 | 0.603 ± 0.018 | 0.302 ± 0.0084 | 0.287 ± 0.027 | 0.44 ± 0.0072 |
| PPIPTPSPIPLH | 0.7119 ± 0.0055 | 0.66 ± 0.018 | 0.726 ± 0.0011 | 0.653 ± 0.017 | 0.695 ± 0.021 | 0.667 ± 0.011 | 0.658 ± 0.017 | 0.677 ± 0.015 |
| LLSILSSLPLSR | 0.576 ± 0.12 | 0.579 ± 0.04 | 0.6106 ± 0.0022 | 0.585 ± 0.043 | 0.7073 ± 0.0042 | 0.654 ± 0.033 | 0.589 ± 0.024 | 0.656 ± 0.029 |
| CLLWVVWSLLWV | 0.353 ± 0.095 | 0.346 ± 0.0041 | 0.432 ± 0.011 | 0.283 ± 0.035 | 0.4506 ± 0.0035 | 0.269 ± 0.0094 | 0.257 ± 0.034 | 0.416 ± 0.0074 |
| RHIPSIILAHVV | 0.295 ± 0.037 | 0.645 ± 0.057 | 0.67 ± 0.016 | 0.585 ± 0.033 | 0.707 ± 0.033 | 0.172 ± 0.019 | 0.192 ± 0.024 | 0.296 ± 0.01 |
| SLIVLRSIAVLD | 0.449 ± 0.012 | 0.484 ± 0.015 | 0.505 ± 0.027 | 0.39 ± 0.02 | 0.543 ± 0.038 | 0.3743 ± 0.0022 | 0.392 ± 0.025 | 0.518 ± 0.013 |
| VLSLYWLIISRL | 0.4672 ± 0.00061 | 0.717 ± 0.04 | 0.736 ± 0.0093 | 0.616 ± 0.016 | 0.742 ± 0.012 | 0.446 ± 0.021 | 0.42 ± 0.0056 | 0.566 ± 0.021 |
| LSTFFIFLRILR | 0.367 ± 0.028 | 0.289 ± 0.028 | 0.218 ± 0.0087 | 0.324 ± 0.04 | 0.4436 ± 0.0022 | 0.517 ± 0.021 | 0.342 ± 0.028 | 0.436 ± 0.05 |
| SPRGVVIAFLVC | 0.129 ± 0.057 | 0.425 ± 0.016 | 0.569 ± 0.089 | 0.356 ± 0.028 | 0.5766 ± 0.0025 | 0.11 ± 0.014 | 0.124 ± 0.025 | 0.109 ± 0.0082 |

| Sequence | protein stability index (Saccharomyces cerevisiae [1]) | protein stability index (Saccharomyces cerevisiae [2]; [3]) | protein stability index (Saccharomyces cerevisiae [2]; [4]) | protein stability index (Saccharomyces cerevisiae [2]; [5]) | protein stability index (Saccharomyces cerevisiae [2]; [6]) | protein stability index (Saccharomyces cerevisiae [2]; [7]) | protein stability index (Saccharomyces cerevisiae [2]; [8]) | protein stability index (Saccharomyces cerevisiae [2]; [9]) |
| --- | --- | --- | --- | --- | --- | --- | --- | --- |
| VPRSLYSVLRLA | 0.2 ± 0.025 | 0.525 ± 0.062 | 0.685 ± 0.026 | 0.652 ± 0.044 | 0.714 ± 0.012 | 0.0744 ± 0.01 | 0.0833 ± 0.0025 | 0.11 ± 0.0054 |
| GCSVSLCCVFVV | 0.372 ± 0.022 | 0.489 ± 0.016 | 0.503 ± 0.021 | 0.36 ± 0.028 | 0.525 ± 0.01 | 0.2589 ± 0.0012 | 0.282 ± 0.025 | 0.433 ± 0.0093 |
| PHRLSRFILRLL | 0.194 ± 0.041 | 0.562 ± 0.027 | 0.683 ± 0.014 | 0.65 ± 0.033 | 0.703 ± 0.013 | 0.118 ± 0.0059 | 0.119 ± 0.019 | 0.219 ± 0.015 |
| LFPLLCLLLPSL | 0.538 ± 0.065 | 0.614 ± 0.091 | 0.664 ± 0.033 | 0.548 ± 0.025 | 0.638 ± 0.0096 | 0.521 ± 0.027 | 0.522 ± 0.02 | 0.628 ± 0.0063 |
| LCLRCQCIGTLS | 0.489 ± 0.0097 | 0.54 ± 0.017 | 0.587 ± 0.014 | 0.45 ± 0.023 | 0.557 ± 0.012 | 0.413 ± 0.016 | 0.435 ± 0.013 | 0.54 ± 0.0091 |
| SQVILFFLSLCR | 0.552 ± 0.08 | 0.607 ± 0.024 | 0.654 ± 0.011 | 0.494 ± 0.024 | 0.619 ± 0.0082 | 0.485 ± 0.011 | 0.4977 ± 0.0029 | 0.61 ± 0.022 |
| YFICLSLVLFSY | 0.303 ± 0.069 | 0.163 ± 0.058 | 0.274 ± 0.05 | 0.215 ± 0.024 | 0.351 ± 0.032 | 0.202 ± 0.02 | 0.179 ± 0.03 | 0.306 ± 0.021 |
| SFSFCCLLASFV | 0.44 ± 0.044 | 0.605 ± 0.015 | 0.6186 ± 0.006 | 0.484 ± 0.028 | 0.617 ± 0.014 | 0.444 ± 0.025 | 0.461 ± 0.015 | 0.603 ± 0.013 |
| GRWAFFTWLRWS | 0.261 ± 0.014 | 0.553 ± 0.016 | 0.674 ± 0.016 | 0.62 ± 0.047 | 0.6825 ± 0.0042 | 0.175 ± 0.0041 | 0.177 ± 0.025 | 0.269 ± 0.047 |
| CTLVFLFFDLCS | 0.405 ± 0.053 | 0.413 ± 0.015 | 0.533 ± 0.087 | 0.333 ± 0.042 | 0.497 ± 0.03 | 0.263 ± 0.014 | 0.304 ± 0.018 | 0.4904 ± 0.0021 |
| IIGCIAICLMVN | 0.0843 ± 0.012 | 0.0164 ± 0.0065 | 0.214 ± 0.25 | 0.0942 ± 0.042 | 0.0938 ± 0.019 | 0.0381 ± 0.015 | 0.0451 ± 0.016 | 0.0405 ± 0.027 |
| LSRSAGVGVWVG | 0.391 ± 0.073 | 0.65 ± 0.01 | 0.72 ± 0.019 | 0.647 ± 0.0099 | 0.731 ± 0.013 | 0.243 ± 0.018 | 0.283 ± 0.022 | 0.553 ± 0.026 |
| SYVFCYICGVQS | 0.428 ± 0.06 | 0.607 ± 0.038 | 0.592 ± 0.025 | 0.411 ± 0.03 | 0.596 ± 0.015 | 0.338 ± 0.031 | 0.372 ± 0.018 | 0.552 ± 0.025 |
| FVFCGVVFLFLL | 0.351 ± 0.086 | 0.399 ± 0.033 | 0.467 ± 0.0057 | 0.395 ± 0.058 | 0.519 ± 0.018 | 0.347 ± 0.0093 | 0.326 ± 0.018 | 0.462 ± 0.0044 |
| FGGICFAVLLCR | 0.343 ± 0.013 | 0.246 ± 0.016 | 0.262 ± 0.0027 | 0.263 ± 0.035 | 0.3926 ± 0.0036 | 0.258 ± 0.0034 | 0.244 ± 0.0097 | 0.357 ± 0.021 |
| VAVYVGVGVSLG | 0.423 ± 0.0046 | 0.454 ± 0.045 | 0.523 ± 0.048 | 0.311 ± 0.03 | 0.546 ± 0.004 | 0.2819 ± 0.0021 | 0.33 ± 0.017 | 0.511 ± 0.039 |
| LGWFVDFVFVVW | 0.4693 ± 0.0045 | 0.289 ± 0.0096 | 0.426 ± 0.037 | 0.27 ± 0.03 | 0.458 ± 0.012 | 0.244 ± 0.0045 | 0.274 ± 0.025 | 0.454 ± 0.0019 |
| LVFLYFHFCCGF | 0.485 ± 0.017 | 0.4768 ± 0.0043 | 0.4909 ± 0.0032 | 0.394 ± 0.026 | 0.543 ± 0.024 | 0.399 ± 0.017 | 0.386 ± 0.013 | 0.5313 ± 0.0006 |
| YVSSCLLWLCFV | 0.376 ± 0.034 | 0.484 ± 0.043 | 0.551 ± 0.018 | 0.421 ± 0.023 | 0.5591 ± 0.0006 | 0.28 ± 0.0085 | 0.287 ± 0.023 | 0.457 ± 0.011 |
